Results taken from paper PMC2649111.

Assays:
Test in all cases: SEC
[1] = biological target: VARC 1–291 of PfEMP1 (PF08_0141) (P. falciparum 3D7)
[2] = biological target: VARC 87–392 of PfEMP1 (PF08_0141) (P. falciparum 3D7)
[3] = biological target: VARC 87–291 of PfEMP1 (PF08_0141) (P. falciparum 3D7)
[4] = biological target: Full-length cytoplasmic C-terminal domain (VARC 1–392) of PfEMP1 (PF08_0141), unphosphorylated (P. falciparum 3D7)

In the case of “VARC 1–291 of PfEMP1 (PF08_0141) (domain or fragment)”, the stoichiometry N [1] is reported as 2.
Work on “VARC 87–392 of PfEMP1 (PF08_0141) (domain or fragment)” yielded a stoichiometry N [2] of 2.
“VARC 87–291 of PfEMP1 (PF08_0141) (domain or fragment)” was tested, and the stoichiometry N [3] was 2.
In the case of “Full-length cytoplasmic C-terminal domain (VARC 1–392) of PfEMP1 (PF08_0141), unphosphorylated (domain or fragment)”, the stoichiometry N [4] is reported as 2.
